± gives the standard deviation of the averaged measurements.
Assay: total protein half-life in vivo (active degradation + dilution); higher = more stable protein
[1] = E. coli NCM3722 delta-clpP delta-lon delta-hslV, growth: N-lim chemostat, doubling time 6 h
[2] = E. coli NCM3722 delta-clpP, growth: N-lim chemostat, doubling time 6 h
[3] = E. coli NCM3722 delta-hslV, growth: N-lim chemostat, doubling time 6 h
[4] = E. coli NCM3722 delta-lon, growth: N-lim chemostat, doubling time 6 h
[5] = E. coli NCM3722 delta-smpB, growth: N-lim chemostat, doubling time 6 h
[6] = wild type E. coli NCM3722, growth: C-lim chemostat, doubling time 3 h
[7] = wild type E. coli NCM3722, growth: C-lim chemostat, doubling time 6 h
[8] = wild type E. coli NCM3722, growth: C-lim chemostat, doubling time 12 h
[9] = wild type E. coli NCM3722, growth: N-lim chemostat, doubling time 6 h
[10] = wild type E. coli NCM3722, growth: N-lim chemostat, doubling time 12 h
[11] = wild type E. coli NCM3722, growth: P-lim chemostat, doubling time 6 h
[12] = wild type E. coli NCM3722, growth: P-lim chemostat, doubling time 12 h

Sequence	total protein half-life in vivo [1]	total protein half-life in vivo [2]	total protein half-life in vivo [3]	total protein half-life in vivo [4]	total protein half-life in vivo [5]	total protein half-life in vivo [6]	total protein half-life in vivo [7]	total protein half-life in vivo [8]	total protein half-life in vivo [9]	total protein half-life in vivo [10]	total protein half-life in vivo [11]	total protein half-life in vivo [12]
MNLNSIPAFDDNYIWVLNDEAGRCLIVDPGDAEPVLNAIAANNWQPEAIFLTHHHHDHVGGVKELVEKFPQIVVYGPQETQDKGTTQVVKDGETAFVLGHEFSVIATPGHTLGHICYFSKPYLFCGDTLFSGGCGRLFEGTASQMYQSLKKLSALPDDTLVCCAHEYTLSNMKFALSILPHDLSINDYYRKVKELRAKNQITLPVILKNERQINVFLRTEDIDLINVINEETLLQQPEERFAWLRSKKDRF [P0AC84]	4.67 ± 0.3 h	4.24 ± 0.2 h	4.88 ± 0.89 h	4.5351 ± 0.0033 h	4.01 ± 0.41 h	2.81 ± 0.13 h	4.76 ± 0.13 h	7.09 ± 1.1 h	4.31 ± 0.21 h	6.316 ± 0.03 h	4.81 ± 0.13 h	8.75 ± 0.89 h
MNMEEIVALSVKHNVSDLHLCSAWPARWRIRGRMEAAPFDTPDVEELLREWLDDDQRAILLENGQLDFAVSLAENQRLRGSAFAQRHGISLALRLLPSHCPQLEQLGAPTVLPELLKSENGLILVTGATGSGKSTTLAAMVGYLNQHADAHILTLEDPVEYLYASQRCLIQQREIGLHCMTFASGLRAALREDPDVILLGELRDSETIRLALTAAETGHLVLATLHTRGAAQAVERLVDSFPAQEKDPVRNQLAGSLRAVLSQKLEVDKQEGRVALFELLINTPAVGNLIREGKTHQLPHVIQTGQQVGMITFQQSYQHRVGEGRL	5.68 ± 0.4 h	–	–	–	–	–	–	–	–	–	–	–
MNMFFRLTALAGLLAIAGQTFAVEDITRADQIPVLKEETQHATVSERVTSRFTRSHYRQFDLDQAFSAKIFDRYLNLLDYSHNVLLASDVEQFAKKKTELGDELRSGKLDVFYDLYNLAQKRRFERYQYALSVLEKPMDFTGNDTYNLDRSKAPWPKNEAELNALWDSKVKFDELSLKLTGKTDKEIRETLTRRYKFAIRRLAQTNSEDVFSLAMTAFAREIDPHTNYLSPRNTEQFNTEMSLSLEGIGAVLQMDDDYTVINSMVAGGPAAKSKAISVGDKIVGVGQTGKPMVDVIGWRLDDVVALIKGPKGSKVRLEILPAGKGTKTRTVTLTRERIRLEDRAVKMSVKTVGKEKVGVLDIPGFYVGLTDDVKVQLQKLEKQNVSSVIIDLRSNGGGALTEAVSLSGLFIPAGPIVQVRDNNGKVREDSDTDGQVFYKGPLVVLVDRFSASASEIFAAAMQDYGRALVVGEPTFGKGTVQQYRSLNRIYDQMLRPEWPALGSVQYTIQKFYRVNGGSTQRKGVTPDIIMPTGNEETETGEKFEDNALPWDSIDAATYVKSGDLTAFEPELLKEHNARIAKDPEFQNIMKDIARFNAMKDKRNIVSLNYAVREKENNEDDATRLARLNERFKREGKPELKKLDDLPKDYQEPDPYLDETVNIALDLAKLEKARPAEQPAPVK	6.08 ± 0.32 h	6.08 ± 0.59 h	6.0465 ± 0.0037 h	6.36 ± 0.18 h	5.95 ± 0.39 h	2.99 ± 0.082 h	5.66 ± 0.27 h	10.9 ± 1.1 h	6.13 ± 0.35 h	12.8 ± 0.28 h	5.879 ± 0.052 h	12.9 ± 1.3 h
MNMLALTIILPLIGFVLLAFSRGRWSENVSAIVGVGSVGLAALVTAFIGVDFFANGEQTYSQPLWTWMSVGDFNIGFNLVLDGLSLTMLSVVTGVGFLIHMYASWYMRGEEGYSRFFAYTNLFIASMVVLVLADNLLLMYLGWEGVGLCSYLLIGFYYTDPKNGAAAMKAFVVTRVGDVFLAFALFILYNELGTLNFREMVELAPAHFADGNNMLMWATLMLLGGAVGKSAQLPLQTWLADAMAGPTPVSALIHAATMVTAGVYLIARTHGLFLMTPEVLHLVGIVGAVTLLLAGFAALVQTDIKRVLAYSTMSQIGYMFLALGVQAWDAAIFHLMTHAFFKALLFLASGSVILACHHEQNIFKMGGLRKSIPLVYLCFLVGGAALSALPLVTAGFFSKDEILAGAMANGHINLMVAGLVGAFMTSLYTFRMIFIVFHGKEQIHAHAVKGVTHSLPLIVLLILSTFVGALIVPPLQGVLPQTTELAHGSMLTLEITSGVVAVVGILLAAWLWLGKRTLVTSIANSAPGRLLGTWWYNAWGFDWLYDKVFVKPFLGIAWLLKRDPLNSMMNIPAVLSRFAGKGLLLSENGYLRWYVASMSIGAVVVLALLMVLR	7.03 ± 0.33 h	7.32 ± 0.33 h	6.62 ± 0.33 h	5.89 ± 0.59 h	6.017 ± 0.032 h	3.23 h	7.19 ± 1.1 h	12.1 ± 1.4 h	–	15.6 h	6.74 ± 0.88 h	11.1 ± 1.1 h
MNMLEKIQSQLEHLSKSERKVAEVILASPDNAIHSSIAAMALEANVSEPTVNRFCRSMDTRGFPDFKLHLAQSLANGTPYVNRNVNEDDSVESYTGKIFESAMATLDHVRHSLDKSAINRAVDLLTQAKKIAFFGLGSSAAVAHDAMNKFFRFNVPVVYSDDIVLQRMSCMNCSDGDVVVLISHTGRTKNLVELAQLARENDAMVIALTSAGTPLAREATLAITLDVPEDTDIYMPMVSRLAQLTVIDVLATGFTLRRGAKFRDNLKRVKEALKESRFDKQLLNLSDDR	6.3 ± 1.1 h	4.86 ± 0.47 h	3.12 ± 0.53 h	3.65 ± 0.91 h	3.23 ± 0.018 h	2.26 ± 0.21 h	4.52 ± 1.7 h	5.45 ± 0.083 h	3.77 ± 0.28 h	4.38 ± 0.15 h	2 ± 0.28 h	4.1 ± 1.5 h
MNMTKGALILSLSFLLAACSSIPQNIKGNNQPDIQKSFVAVHNQPGLYVGQQARFGGKVINVINGKTDTLLEISVLPLDSYAKPDIEANYQGRLLARQSGFLDPVNYRNHFVTILGTIQGEQPGFINKVPYNFLEVNMQGIQVWHLREVVNTTYNLWDYGYGAFWPEPGWGAPYYTNAVSQVTPELVK	–	6.72 ± 0.84 h	6.43 ± 0.72 h	–	6.62 ± 0.25 h	–	–	14.6 h	–	12.8 ± 0.086 h	5.75 ± 0.59 h	12.6 ± 1 h
MNNEPLRPDPDRLLEQTAAPHRGKLKVFFGACAGVGKTWAMLAEAQRLRAQGLDIVVGVVETHGRKDTAAMLEGLAVLPLKRQAYRGRHISEFDLDAALARRPALILMDELAHSNAPGSRHPKRWQDIEELLEAGIDVFTTVNVQHLESLNDVVSGVTGIQVRETVPDPFFDAADDVVLVDLPPDDLRQRLKEGKVYIAGQAERAIEHFFRKGNLIALRELALRRTADRVDEQMRAWRGHPGEEKVWHTRDAILLCIGHNTGSEKLVRAAARLASRLGSVWHAVYVETPALHRLPEKKRRAILSALRLAQELGAETATLSDPAEEKAVVRYAREHNLGKIILGRPASRRWWRRETFADRLARIAPDLDQVLVALDEPPARTINNAPDNRSFKDKWRVQIQGCVVAAALCAVITLIAMQWLMAFDAANLVMLYLLGVVVVALFYGRWPSVVATVINVVSFDLFFIAPRGTLAVSDVQYLLTFAVMLTVGLVIGNLTAGVRYQARVARYREQRTRHLYEMSKALAVGRSPQDIAATSEQFIASTFHARSQVLLPDDNGKLQPLTHPQGMTPWDDAIAQWSFDKGLPAGAGTDTLPGVPYQILPLKSGEKTYGLVVVEPGNLRQLMIPEQQRLLETFTLLVANALERLTLTASEEQARMASEREQIRNALLAALSHDLRTPLTVLFGQAEILTLDLASEGSPHARQASEIRQHVLNTTRLVNNLLDMARIQSGGFNLKKEWLTLEEVVGSALQMLEPGLSSPINLSLPEPLTLIHVDGPLFERVLINLLENAVKYAGAQAEIGIDAHVEGENLQLDVWDNGPGLPPGQEQTIFDKFARGNKESAVPGVGLGLAICRAIVDVHGGTITAFNRPEGGACFRVTLPQQTAPELEEFHEDM	6.66 ± 0.19 h	6.31 ± 0.4 h	6.32 ± 0.48 h	5.21 ± 0.13 h	5.88 ± 0.37 h	3.44 ± 0.035 h	6 ± 0.74 h	12.1 ± 1 h	5.56 ± 0.21 h	10.7 ± 0.66 h	6.348 ± 0.059 h	11.6 ± 0.51 h

Source: the supplement of paper PMC11246515
